Source: patent US20200003757A1, “METHOD OF IDENTIFYING AGENTS THAT AFFECT MATURATION, SURVIVAL AND MYELINATION” (KADIMASTEM, LTD., priority 2011, published 2020)

Columns and labels:
hES-OPC = assay: Differentiation assay; dose response of Noggin on hES-OPC (O4/DAPI staining, Cellomics neuronal profiling); type: cell-based, human
Procedure: 5000 hES-OPC were seeded in each well of Matrigel and PDL-coated 96 well black clear plates (CI-3603, Corning). The medium used for the experiment comprised DMEM/F12 with 0.5% (v/v) N2 supplement (Invitrogen), 1% (v/v) B27 supplement, Glutamax and 100 U/ml penicillin and 100 μg/ml streptomycin (Biological Industries, IL). The cells were deprived from growth factors 24 hours prior to seeding. 12 hours following seeding, increasing doses of Noggin (Preprotech, Israel) were supplemented to the media for the ten days of differentiation. The Noggin doses ranged between 15 nM to 0.015 nM (450 ng/ml to 0.45 ng/ml) with 3.16 fold dilutions (square root of 10) in the presence of 0.1% DMSO and 50 μg/ml Vitamin C. Samples without Noggin in the presence of 0.1% DMSO and 50 μg/ml Vitamin C served as negative control. The media was changed every other day by replenishing ⅔ of the media. On day ten, the wells were fixed using 4% paraformaldehyde (PFA) for further O4 and Dapi staining.
Cells were fixed using 4% paraformaldehyde (PFA), washed with PBS and kept at 4° C. before staining. Non-specific staining was blocked with normal goat serum (5% w/v in PBS) for 30 minutes at RT. Primary mouse monoclonal (mMc) and rabbit polyclonal antibodies, diluted in 1% goat serum, were as described in Table 2, herein below. All staining was followed by the nuclear fluorescent dye DAPI (Sigma, 0.05 μg/ml). All coverslips were mounted in Mowiol (Calbiochem, La Jolla, Calif.). An Olympus IX-70 FLA microscope with a DVC-1310C digital camera (DVC, Austin, Tex.) was used and images processed with Photoshop and analyzed with Image-Pro-Plus software (Media Cybernetics, Silver Spring, Md.) to measure Integrated Optic Density (IOD) of color-specific pixels and MBP positive fiber length. […]
BMP signaling negatively regulates oligodendrocyte lineage development, and it has been shown that Noggin, an inhibitor of BMP signaling, promotes the differentiation of ES-derived oligodendrocytes. As a proof of concept that effects of drugs on oligodendrocyte differentiation can be quantified, the inventors searched for the optimal concentration of Noggin to be used to promote differentiation. […] Nuclear DNA staining with DAPI was used to quantify the cell number per field, and oligodendrocytes were characterized by staining with O4. […] Similarly, O4 positive processes (green) were counted and measured only if attached to O4 cell body. Places where one process becomes two were counted as branch point (FIGS. 3D-E, yellow circles). The numbers of processes, their lengths, and the number of branch points per O4 positive cell body were counted. […] Thus, it may be concluded that the present assay is capable of quantifying the effect of Noggin. […]

human oligodendrocytes = assay: Human oligodendrocytes and hESC-OPC survival assay (dead cell labeling and O4 labeling); type: cell-based; details: 14 days in culture
Procedure: In order to evaluate the survival of human oligodendrocytes or its progenitor cells in culture, a specific dead cell labeling (Live/dead viability/cytotoxicity kit for mammalian cells, Invitrogen, molecular probes, L3223) was used. A culture of differentiated oligodendrocytes and oligodendrocytes progenitor culture sorted by O4+ or CD140+ MACS sorting respectively were obtained. The effect of recombinant human IFN-Y (R&D systems, Biotest, 285-IF-100) was tested on oligodendrocytes survival. Following 14 days in culture the cells were labeled with dead cell labeling (Ethidium heterodimer 1-red labeling) and O4 labeling (green). […] Such an assay gives complementary results on the effect of tested compound on oligodendrocytes survival.

| Molecule | morphology of O4 positive OLs versus absence of Noggin (hES-OPC; Noggin added after growth factor removal, FIGS. 3A-C) | number of O4 positive cell per well (hES-OPC; ten days differentiation with noggin treatment) | process numbers per cell, total process length per well, number of branch points per cell (hES-OPC; ten days differentiation, O4 positive cells, serial dilutions of Noggin) | EC50 (hES-OPC; ten days without growth factors, O4 staining, triplicate, FIG. 3F, read-out: EC50 (50% of the maximal effect), curve generated by integrating process numbers per cell, total process length per well and number of branch points per cell) | percentage of dead cells (human oligodendrocytes; Ethidium heterodimer 1 labeling, FIG. 12E) | number of differentiated oligodendrocytes (O4+ cells) (human oligodendrocytes; O4 labeling, FIG. 12F) |
| --- | --- | --- | --- | --- | --- | --- |
| Noggin: an inhibitor of BMP signaling (Preprotech, Israel) (protein, UniProt Q13253 28-232, looked up) Noggin: QHYLHIRPAPSDNLPLVDLIEHPDPIFDPKEKDLNETLLRSLLGGHYDPGFMATSPPEDRPGGGGGAAGGAEDLAELDQLLRQRPSGAMPSEIKGLEFSEGLAQGKKQRLSKKLRRKLQMWLWSQTFCPVLYAWNDLGSRFWPRYVKVGSCFSKRSCSVPEGMVCKPSKSVHLTVLRWRCQRRGGQRCGWIPIQYPIISECKCSC | stimulates the emergence of OLs with longer and multiple processes | not changed | correlated with Noggin concentration | 0.157 nM |  |  |
| IFN-Y: recombinant human IFN-Y (R&D systems, Biotest, 285-IF-100) (protein, UniProt P01579 24-161, looked up) Interferon gamma: QDPYVKEAENLKKYFNAGHSDVADNGTLFLGILKNWKEESDRKIMQSQIVSFYFKLFKNFKDDQSIQKSVETIKEDMNVKFFNSNKKKRDDFEKLTNYSVTDLNVQRKAIHELIQVMAELSPAAKTGKRKRSQMLFRG |  |  |  |  | increased the percentage of dead cells | decreased the number of differentiated oligodendrocytes |
